# Experimental data: the DeepSol protein solubility set
# Experiment: soluble on expression in E. coli; label from the status in PepcDB or PDB records
row,Sequence,soluble on expression in E. coli
1,MSMGKQGVKTAVPKLRFPEFRHSEAWELKKLSCFLVEQKKRNKNLSFGPQEVLSVSGEHGCVNQIELLGRSYAGVSLANYHVVETGDIVYTKSPLKRNPFGIIKENKGKPGVVSTLYAVYRTTVFGNPAFLDHYFSGDYNLNSYLQPIVRKGAKNDMKVSNAAVLAGEVFAPEVEEQKKIADFLTSLDDLISVQVLKVEALKVHKRGLMQELFPREGEASPRLRFPEFSNASGWTLGKASDIIDVLQGYGFPERLQGGREGNFPFYKVSDISACVDAGGILLDKANNHIDADVLEELRAKLMPIGSTVFAKIGEAIRSNKRAITSRPCLVDNNVAGVKAITGLAHDRFVYYMWCQIPLIEYAGGVVPAVKKSLMEQIPVCYPKFDEQQRIADFLSSLDAKIAAEFDQLAALRTHKKGLMQQLFPLSEVGLLEHHHHHH,soluble
2,MTVPTYDKFIEPVLRYLATKPEGAAARDVHEAAADALGLDDSQRAKVITSGQLVYKNRAGWAHDRLKRAGLSQSLSRGKWCLTPAGFDWVASHPQPMTEQETNHLAFAFVNVKLKSRPDAVDLDPKADSPDHEELAKSSPDDRLDQALKELRDAVADEVLENLLQVSPSRFEVIVLDVLHRLGYGGHRDDLQRVGGTGDGGIDGVISLDKLGLEKVYVQAKRWQNTVGRPELQAFYGALAGQKAKRGVFITTSGFTSQARDFAQSVEGMVLVDGERLVHLMIENEVGVSSRLLKVPKLDMDYFE,soluble
3,MGSDKIHHHHHHMDNKELKAFCNLIGLNCVGVAGVDKYDNLEKILKDRQQKGYLTGMEEPIIENRINPRHIMKDANSIIVCAFPYHINRQEKNKNSNLSKYCHGKDYHIVVKDFLQQICDYISKTVTDFKYKLFADNGPLVDRYLAYLSGIGYFGINNNIITDEYGSYVFIGYIVNNYKFEEDKPLEKSCFKCGKCVKYCPGNAILGNYDMNPKKCLSYITQKKGDLSEKEKVVLKNGKKVFGCDICQEVCPHNVEIPTTHILEFKENIIDYLDYDEIQNISNKEFKRRYGDRAFSWRGRNIIKRNMEIILDKYDD,not soluble
4,MSHIQRETSCSRPRLNSNLDADLYGYRWARDNVGQSGATIYRLYGKPNAPELFLKHGKGSVANDVTDEMVRLNWLTAFMPLPTIKHFIRTPDDAWLLTTAIPGKTAFQVLEEYPDSGENIVDALAVFLRRLHSIPVCNCPFNSDRVFRLAQAQSRMNNGLVDASDFDDERNGWPVEQVWKEMHKLLPFSPDSVVTHGDFSLDNLIFDEGKLIGCIDVGRVGIADRYQDLAILWNCLGEFSPSLQKRLFQKYGIDNPDMNKLQFHLMLDEFF,soluble
5,KSAIVHLINYQDDAELATRALPELTKLLNDEDPVVVTKAAMIVNQLSKKEASRRALMGSPQLVAAVVRTMQNTSDLDTARCTTSILHNLSHHREGLLAIFKSGGIPALVRMLSSPVESVLFYAITTLHNLLLYQEGAKMAVRLADGLQKMVPLLNKNNPKFLAITTDCLQLLAYGNQESKLIILANGGPQALVQIMRNYSYEKLLWTTSRVLKVLSVCPSNKPAIVEAGGMQALGKHLTSNSPRLVQNCLWTLRNLSDVATKQEGLESVLKILVNQLSVDDVNVLTCATGTLSNLTCNNSKNKTLVTQNSGVEALIHAILRAGDKDDITEPAVCALRHLTSRHPEAEMAQNSVRLNYGIPAIVKLLNQPNQWPLVKATIGLIRNLALCPANHAPLQEAAVIPRLVQLLVKAHQDAQRHVAAGTQQPYTDGVRMEEIVEGCTGALHILARDPMNRMEIFRLNTIPLFVQLLYSSVENIQRVAAGVLCELAQDKEAADAIDAEGASAPLMELLHSRNEGTATYAAAVLFRISEDKNPDYRKRVSVELTNSLFKHD,soluble
6,MNLVGIVGTNSERSTNRKLLRFMAEHFAPQAAIEVLEIKDLPAFDEPENKTAPAAVTAFSKKIAAADGVIIATPEYNHTIPAPLGSALEWIAYTSRVLVNKPVMIVGCSLGALGTSRAQAHLRQILDAPELKARVMPGTEFFLGHSEHVLDDDFNLNNPEKVAELEEHFTEFQDFVIVTNQIVKQADTDRKKAFVWEAGELEHHHHHH,soluble
7,MSLFRVGRKIARSIHKAITSEDSVDVSELDGVRSLHLGSDTIQSSMRIKDPYALELRYSRGMMVYLLFQKQPRDLVVLGLGGGSIPKYVYHHLPQVKTRVVEINPRIIEVARSHFFTPENDERFEIIEGDAAAFLRDNPATTSMLMMDAFGSNGLPPDLCSQDFFDSCFEALTLDGMCAINLWGSDKHYDVYLQRIETSFHGRILVMPTGRPGNVVVFGFKRAPNDLRWSTLRVRAKALEAEHKIEFLEFVERLREHNPSTSNRLLLESEGHHHHHH,soluble
8,MGHHHHHHSHMGLYHVGQAGLELLTSSDPPTSASQNAEITGVSHRAQSKAHNLQRKLRLSHKSSPPCTYTQHAGGVDSHPLTQDMCVIVNVIARPFDKCNCDIYLGLASELFVVSWVQLTVPYHWIQTLGNVILFCLDTAHRGHCDIAGHCT,not soluble
9,MNKKILVVDDEESIVTLLQYNLERSGYDVITASDGEEALKKAETEKPDLIVLDVMLPKLDGIEVCKQLRQQKLMFPILMLTAKDEEFDKVLGLELGADDYMTKPFSPREVNARVKAILRRSEIRAPSSEMKNDEMEGQIVIGDLKILPDHYEAYFKESQLELTPKEFELLLYLGRHKGRVLTRDLLLSAVWNYDFAGDTRIVDVHISHLRDKIENNTKKPIYIKTIRGLGYKLEEPKMNE,soluble
10,MARQHRLRAGRPVAAEACMSGGETGRTLRALFMSVSLGAGHDQAQQAVKQAFAERGVELLGAEHDSVEYLSTFERSFTVDLYEFELRYAPWLYRGFYWLTDQDQPWNIISRMFTWLGMGAFKDELRELRPEVVINSFWAPAAVCDTLRAQTGQRFLNCLIVTDYRAHLHWARRETDLLMVASEETRRQMLERGVRPEQVEVTGIPISPAFREVLAADRWALRAELFSEMSLRPGVPLLLLSGGGRGHYAAAADVLTELGNLGRAVQVLVPASRQGEGTETIGGATVHHLGFRRDLPRLLAASDLVVGKAGGLTVAEATALGVPLVIYAPIPGQEEHNADFLERHGAGLWARARHDVRPLVLRALDPAEHARLSAGARAVGIPDAADRVAGAILRRLGDGLGDELGDSRGPA,not soluble
11,MKIRILGSGTSTGVPEIGCTCAVCTSKDPRDCRLRTSALVYTDDATILLDCGPDFREQMLRVPFGKIDAVLISHEHYDHVGGLDDLRPFCRFGEVPIYAETYTAERLRSRMPYCFVEHSYPGVPNIPLREIEPNRPFLVNHTEVLPLRVMHGKLPILGYRIGKLGYITDMLTMPDESFEQLQGIEVLVMNALRIAPHNTHQSLSEALEAVKRIGAKETWLIHMSHHIGLQADVEKQLPPHVHFAFDGLELECLEHHHHHH,not soluble
12,MLEGVIRESITKANAKALKKDGYLIANVYGKGIENVNGAFKLNPFIKYLKEKKHLIFPVKLGDKTFEVVVQEYQKNPVTNELIHVDLLAVTKGVKSKFKVPIKHQGTPVGLKNKGILMLSKKRISVECAPEHLPDHYLVDVAPLDVNESILVRDLEKHENVKILDHDSIAVIGVIKAK,not soluble
13,MGSDKIHHHHHHMIEANQILAKMKNQKINYDKVLRKIISQWERDGERPKILLHSCCAPCSTYTLEFLTQYADIAIYFANPNIHPKSEYLRRAKVQEQFVNDFNNKTGASVKYIEAEYEPHKFMKMAKDKGLTEEPEGGLRCTACFEMRLEIVAKAALEHGYDYFGSAITLSPKKNAQLINELGMDVQNIYNVKYLPSDFKKNKGYERSIEMCNDYNIFRQCYCGCVFAAMKQGIDFKQINKDAQAFLQQF,not soluble
14,ETISAFSNQVIQRGATGDDVVELQARLQYNGYYNGKIDGVYGWGTYWAVRNFQDQFGLKEVDGLVGAKTKQTLICKSKYYREYVMEQLNKGNTFTHYGKIPLKYQTKPSKAATQKARQQAEARQKQPAEKTTQKPKANANKQQNNTPAKARKQDAVAANMPGGFSNNDIRLLAQAVYGEARGEPYEGQVAIAAVILNRLNSPLFPNSVAGVIFEPLAFTAVADGQIYMQPNETAREAVLDAINGWDPSEEALYYFNPDTATSPWIWGRPQIKRIGKHIFCE,not soluble
15,SNAMLDITTITRQNVTSVVGYYSDAKDDYYSKDSSFTSWQGTGAEALGLSGDVESARFKELLVGEIDTFTHMQRHVGDAKKERLGYDLTFSAPKGVSMQALIHGDKTIIEAHEKAVAAAVREAEKLAQARTTRQGKSVTQNTNNLVVATFRHETSRALDPDLHTHAFVMNMTQREDGQWRALKNDELMRNKMHLGDVYKQELALELTKAGYELRYNSKNNTFDMAHFSDEQIRAFSRRSEQIEKGLAAMGLTRETADAQTKSRVSMATREKKTEHSREEIHQEWASRAKTLGIDFDNREWQG,soluble
16,MSKPFKLNSAFKPSGDQPEAIRRLEEGLEDGLAHQTLLGVTGSGKTFTIANVIADLQRPTMVLAPNKTLAAQLYGEMKEFFPENAVEYFVSYYDYYQPEAYVPSSDTFIEKDASVNEHIEQMRLSATKAMLERRDVVVVASVSAIYGLGDPDLYLKMMLHLTVGMIIDQRAILRRLAELQYARNDQAFQRGTFRVRGEVIDIFPAESDDIALRVELFDEEVERLSLFDPLTGQIVSTIPRFTIYPKTHYVTPRERIVQAMEEIKEELAARRKVLLENNKLLEEQRLTQRTQFDLEMMNELGYCSGIENYSRFLSGRGPGEPPPTLFDYLPADGLLVVDESHVTIPQIGGMYRGDRARKETLVEYGFRLPSALDNRPLKFEEFEALAPQTIYVSATPGNYELEKSGGDVVDQVVRPTGLLDPIIEVRPVATQVDDLLSEIRQRAAINERVLVTTLTKRMAEDLTEYLEEHGERVRYLHSDIDTVERMEIIRDLRLGEFDVLVGINLLREGLDMPEVSLVAILDADKEGFLRSERSLIQTIGRAARNVNGKAILYGDKITPSMAKAIGETERRREKQQKYNEEHGITPQGLNKKVVDILALGQNIAKTKAKGRGKSRPIVEPDNVPMDMSPKALQQKIHELEGLMMQHAQNLEFEEAAQIRDQLHQLRELFIAAS,soluble
17,MGSDKIHHHHHHMLTRQRPLHGIGTTQAAVLKHLRRNGIASRAELAELCGVTQAAVSMMTRDLIARGIVIQGARRQSQRGAPHIDLMLAGNIGYALGVHANSYSLTVTLLDFCGNRIGEQQLEGPYDRFSDIQTAIKSLRTDLLTSNGIDEGLLIGAAVAMPTRFRHGTAFLDLAEEVVSWAGSDLASTLRETLDCPVMIENDANAAAMGELALGNASGHDNFAYLYLSEGIGSGIIIGKELYRGNLGNAGEVGALRARGLSRPSFDDLAAWCKEHQGHIPKGRSSDQWTAYLQANPTVLDAWLRRAGPELATLAFMVTAVLAPSAIYIGGTLPRLVREKLAPWLDFSTSNPFDGARVIQPDILIPQISAVDAVAFGAAAMILHSVPGNPGL,not soluble
